Test [1] has as its target Human CD226 on the cell surface of stably transfected HEK 293 cells (human) (UniProt Q15762). As to the kind of experiment: flow cytometry on HEK 293 cells expressing human CD226, control IgG (denominator of the ratio).
For test [2], the target named is Cynomolgus monkey CD226 on the cell surface of stably transfected HEK 293 cells (cynomolgus monkey). As to the kind of experiment: flow cytometry on HEK 293 cells expressing cynomolgus CD226, control IgG (denominator of the ratio).
Chain of Cynomolgus monkey CD226 on the cell surface of stably transfected HEK 293 cells (cynomolgus monkey) (chain, as listed by the source): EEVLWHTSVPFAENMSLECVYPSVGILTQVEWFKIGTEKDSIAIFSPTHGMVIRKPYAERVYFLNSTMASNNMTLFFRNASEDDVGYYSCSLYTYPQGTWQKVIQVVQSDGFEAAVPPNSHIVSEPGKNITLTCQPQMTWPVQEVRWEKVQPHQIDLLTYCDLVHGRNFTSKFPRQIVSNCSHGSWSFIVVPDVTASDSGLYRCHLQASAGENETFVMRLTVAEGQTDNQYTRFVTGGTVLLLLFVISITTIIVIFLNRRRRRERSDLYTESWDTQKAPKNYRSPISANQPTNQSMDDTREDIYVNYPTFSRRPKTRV

Chain of Human CD226 on the cell surface of stably transfected HEK 293 cells (human) (Q15762 19-336 limits assumed): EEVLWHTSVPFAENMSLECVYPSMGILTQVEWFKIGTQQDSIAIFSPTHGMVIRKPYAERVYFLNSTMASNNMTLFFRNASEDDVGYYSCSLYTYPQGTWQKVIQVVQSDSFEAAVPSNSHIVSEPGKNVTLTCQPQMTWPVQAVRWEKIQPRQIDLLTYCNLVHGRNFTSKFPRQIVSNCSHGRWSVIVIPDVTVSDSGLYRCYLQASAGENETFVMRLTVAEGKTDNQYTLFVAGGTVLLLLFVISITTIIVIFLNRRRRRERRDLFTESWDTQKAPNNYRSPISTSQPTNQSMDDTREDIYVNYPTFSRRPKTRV

Regarding Control human IgG1 (antibody), the MFI was 8.98 in test [1] and 3.94 in test [2].
